Here are results for 20 molecules from patent US20110262445A1 (CEPHALON AUSTRALIA, published 2011).

Numbering of substitutions follows the chain as printed. Names and notes keep the numbering of the source.

To fix the notation:
T1: human IL-12 (human, UniProt P29460 23-328; P29459 23-219)
T1 construct: Recombinant (Peprotech); FLAG-tagged IL-12 in the flow cytometry assays, biotinylated in the IL-12Rβ2 assay; also called hIL-12
T1 sequence 1: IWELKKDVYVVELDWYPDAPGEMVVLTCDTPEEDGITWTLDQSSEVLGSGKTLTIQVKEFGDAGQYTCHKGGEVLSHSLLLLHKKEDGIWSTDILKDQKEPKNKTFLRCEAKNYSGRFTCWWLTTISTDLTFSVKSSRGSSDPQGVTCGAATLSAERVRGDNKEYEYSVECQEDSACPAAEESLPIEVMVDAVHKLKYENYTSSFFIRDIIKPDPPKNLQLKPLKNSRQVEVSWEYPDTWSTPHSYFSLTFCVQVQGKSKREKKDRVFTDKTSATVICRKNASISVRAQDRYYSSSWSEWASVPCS
T1 sequence 2: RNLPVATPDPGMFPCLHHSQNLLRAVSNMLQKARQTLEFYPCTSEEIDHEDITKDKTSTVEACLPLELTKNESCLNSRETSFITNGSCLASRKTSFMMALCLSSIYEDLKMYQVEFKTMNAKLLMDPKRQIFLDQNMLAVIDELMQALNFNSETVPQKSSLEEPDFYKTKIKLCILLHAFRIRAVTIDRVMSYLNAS

T2: human IL-23 (human, UniProt P29460 23-328; Q9NPF7 20-189)
T2 construct: Recombinant (Ebioscience); HIS-tagged in flow cytometry, biotinylated in some assays; also called hIL-23; rhIL-23
T2 sequence 1: T1 sequence 1
T2 sequence 2: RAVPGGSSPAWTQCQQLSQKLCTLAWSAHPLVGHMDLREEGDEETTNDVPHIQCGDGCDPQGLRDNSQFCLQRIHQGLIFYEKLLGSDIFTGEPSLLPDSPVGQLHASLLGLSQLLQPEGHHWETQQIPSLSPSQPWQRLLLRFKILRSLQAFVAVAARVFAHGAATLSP

B1: Antibody 6 (antibody, human IgG1, kappa, V domains shown)
VH: EVQLQQSGADLVRSGASIKLSCTASGFNIKDYYMHWVKQRPEQGLEWIGWIDPENGDTEYAPKFQGKATMTADTSSNTAYLQLSSLTSEDTAVYYCNARKELRYFDVWGAGTTVTVSS
VL: DIVLTQSPATLSVTPGDSVSLSCRASQSISINLHWYQQKSHESPRLLIKFASQSISGIPSRFSGYGSGTDFTLSINSVETEDFGRYFCQQSNSWPLTFGAGTKLELKR
B2: Antibody 175 (antibody, human IgG1, kappa, V domains shown)
VH: EVQLVQSGAEVKKPGATVKISCKASGYAFSDYYLHWVRQAPEKGLEWMGWIDPENGDTEYAPKFQGRVTITADTSTDTGYLELSSLRSEDTAVYYCAANKELRYFDVWGQGTLVTVSS
VL: DIQMTQSPSSVSASVGDRVTITCRASQSISINLHWYQQKPGKAPKLLIYFASQSISGVPSRFSGSGSGTDFSLTINSLQTEDFATYYCQQSNSFPLTFGGGTKVEIKR
B3: Antibody 199 (antibody, human IgG1, kappa, V domains shown)
VH: QVQLVQSGAEVKKPGASVKVSCKASGYTFTDYYLHWVRQAPGQGLEWMGWIDPENGDTEYAPKFQGRVTMTTDTSTSTAYMELRSLRSDDTAVYYCAANKELRYFDVWGQGTMVTVSS
VL: EIVMTQSPATLSVSPGERATLSCRASQSISINLHWYQQKPGQAPRLLIYFASQSISGIPARFSGSGSGTEFTLTISSLQSEDFAVYYCQQSNSFPLTFGGGTKVEIKR
B4: Antibody 203 (antibody, human IgG1, kappa, V domains shown)
VH: B3 VH with Y60H
VL: B3 VL
B5: Antibody 204 (antibody, human IgG1, kappa, V domains shown)
VH: B3 VH with K12E, R67G
VL: B3 VL
notes: not the murine PMA204
B6: Antibody 202 (antibody, human IgG1, kappa, V domains shown)
VH: B3 VH with F29L, Y60S
VL: B3 VL
notes: not the murine PMA202
B7: Antibody 206 (antibody, human IgG1, kappa, V domains shown)
VH: B3 VH with T28A
VL: B3 VL
B8: Antibody 201 (antibody, human IgG1, kappa, V domains shown)
VH: B3 VH with Y60S
VL: B3 VL
B9: Antibody 200 (antibody, human IgG1, kappa, V domains shown)
VH: B3 VH with F29L
VL: B3 VL
B10: Antibody 70 (antibody, human IgG1, kappa, V domains shown)
VH: B2 VH with A28T, A40R, R67K
VL: B2 VL with T80P, T85R
B11: Antibody 73 (antibody, human IgG1, kappa, V domains shown)
VH: B2 VH with A28T
VL: B2 VL with Y49K, S65Y, T80P, T85R
B12: Antibody 71 (antibody, human IgG1, kappa, V domains shown)
VH: B2 VH with A28T, E42G
VL: B2 VL with Y49K, S65Y, T80P, T85R
B13: Antibody 74 (antibody, human IgG1, kappa, V domains shown)
VH: B2 VH with A28T, E42G, R67K
VL: B2 VL with Y49K, S65Y, T80P, T85R
B14: Antibody 72 (antibody, human IgG1, kappa, V domains shown)
VH: B2 VH with A28T, A40R, E42G
VL: B2 VL with Y49K, S65Y, T80P, T85R
B15: Antibody 75 (antibody, human IgG1, kappa, V domains shown)
VH: B2 VH with A28T, A40R, R67K
VL: B2 VL with Y49K, S65Y, T80P, T85R
B16: scFv combo. # 3 (scFv)
scFv: QVQLVQSGAEVKKPGASVKVSCKASGYAFTDYYLHWVRQAPGQGLEWMGWIDPENGDTEYAPKFQGRVTMTTDTSTSTAYMELRSLRSDDTAVYYCNANKELRYFDVWGQGTMVTVSSGGGGSGGGGSGGGGSEIVMTQSPATLSVSPGERATLSCRAPQSISINLHWYQQKPGQAPRLLIYFASQSISGIPARFSGSGSGTEFTLTISSLQSEDFAVYYCQQSNSFPLTFGGGTKVEIKR
notes: scFv-80 with VH T28A; VL S26P; not shown: proprietary C-terminal FLAG tag
B17: scFv combo. # 16 (scFv)
scFv: B16 scFv with A28T, F29L, P159S, S185R
notes: scFv-80 with VH F29L; VL S52R; not shown: proprietary C-terminal FLAG tag
B18: scFv combo. # 15 (scFv)
scFv: B16 scFv with A28T, F29L, P159S, S196F
notes: scFv-80 with VH F29L; VL S63F; not shown: proprietary C-terminal FLAG tag
B19: scFv combo. # 4 (scFv)
scFv: B16 scFv with A28T, F29L
notes: scFv-80 with VH F29L; VL S26P; not shown: proprietary C-terminal FLAG tag
B20: scFv combo. # 5 (scFv)
scFv: B16 scFv with P159S, S196F
notes: scFv-80 with VH T28A; VL S63F; not shown: proprietary C-terminal FLAG tag

The first assay concerns the target T1, human IL-12. Put plainly: ELISA, coated IL-12. In short, it runs like this:
(§1)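 Cytokine at 1 μg/mL in carbonate buffer pH 9.6 was coated overnight at 4° C onto Maxisorp plates and blocked with 1% BSA in PBS for 1 hour at 25° C. Antibody titrations were bound for 1 hour at 25° C, then detected with goat anti-human IgG or anti-murine immunoglobulin HRP (1:2000, 1 hour). TMB was developed and stopped with 1M HCl. The binding result is absorbance at 450 nm (reference 620 nm).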
With B1, the binding result is given as “no binding (tested: not given)”.

The target of the next assay is T1, human IL-12. Put plainly: ELISA, coated IL-12. The source holds these as a separate data set. On the procedure:
(§2) IL-12 (Peprotech), IL-23 (Ebioscience™), IL-12p40 (Ebioscience™) or IL-12p80 (Peprotech), was diluted to 1 μg/mL in carbonate coating buffer ([…] pH 9.6) and coated onto a 96 well plate (Nunc™, Maxisorp™) overnight at 4° C. The plate was then washed three times with wash buffer (0.01M PBS pH 7.2, 0.05% Tween-20) and then three times with 0.01M PBS pH 7.2. The wells were then blocked by adding 200 μl of blocking buffer (1% w/v BSA in 0.01 M PBS pH 7.2) to each well and incubating the plate at 25° C. for 1 hour. The antibody was diluted in antibody diluent (1% w/v BSA, 0.05% Tween-20 in 0.01M PBS pH 7.2) sufficient to generate a titration curve. The wells were incubated with the antibody for 1 hour at 25° C. The plate was then washed as previously described. Goat anti-human immunoglobulin G (H+L) antibody HRP conjugate (Zymed®) at 1:2000 in antibody diluent was used to detect bound primary antibody. Goat anti-murine immunoglobulin antibody HRP conjugate (Dako) at 1:2000 in antibody diluent was used to detect bound murine antibody. After incubation at 25° C. for 1 hour the plate was washed again as previously described. TMB substrate solution (Zymed®) was added to each well and the colour allowed to develop; the reaction was terminated by adding 1M HCl to the wells. The absorbance of each well was determined at 450 nm (ref. 620 nm).
Background: In an ELISA, binding on a coated surface is turned into a signal by an enzyme label.
As for B2, the binding result is “binds”.
Same read-out and setting: under B3 stands “binds”; under B4, “binds”.
For the molecule B5, the binding result is listed as “binds”.
Same read-out and setting: under B6 stands “binds”; under B7, “binds”; under B8, “binds”.
With B9, the binding result was “binds”.

Another assay has as its target T1, human IL-12. Kind of assay: ELISA, coated IL-12. The source holds these as a separate data set. In short, it runs like this:
as §1
In the case of B10, the binding result is listed as “binds”.
The same measure, in the same setting: then B11, with “binds”; and B12, with “binds”.
Still for that read-out and setting: then B13, with “binds”.
Same read-out and setting: under B14 stands “binds”; under B15, “binds”.

A further assay deals with T2, human IL-23. Put plainly: ELISA, coated IL-23. Summed up:
as §1
Consider B10, for which the binding result is recorded as “binds”.
As to B11, the binding result is “binds”.
Still for that read-out and setting: then B12, with “binds”; and B13, with “binds”.
Still for that read-out and setting: then B14, with “binds”.
With B15, the binding result was “binds”.

In another assay the target is T2, human IL-23. Kind of assay: ELISA, coated IL-23. The source holds these as a separate data set. On the procedure:
as §2
Consider B2, for which the binding result was “binds”.
With B3, the binding result is reported as “binds”.
B4: the binding result is listed as “binds”.
Same read-out and setting: then B5, with “binds”; and B6, with “binds”.
The same measure, in the same setting: then B8, with “binds”.
In the case of B9, the binding result is given as “binds”.

The next assay concerns the target T1, human IL-12. Put plainly: SPR, single 81 nM analyte, scFv via FLAG.
A word on the Kd: it is the concentration at which binding is half-saturated. By koff is commonly meant a measure of how fast the partners let go of each other. A word on the kon: it is the second-order rate constant of association. Higher therefore signals faster complex formation. Molecule B16 registered a Kd of 0.029 nM, a dissociation rate constant (koff) of 4.5e-05 s⁻¹ and an on-rate (kon) of 1.6e+06 M⁻¹ s⁻¹.
On the same counts, the results for B17 are 0.05 nM, 7.5e-05 s⁻¹ and 1.5e+06 M⁻¹ s⁻¹.
For B18, in that order: 0.039 nM, 6.4e-05 s⁻¹ and 1.7e+06 M⁻¹ s⁻¹.
The molecule B19 yielded a dissociation constant Kd of 0.027 nM, a koff of 4.8e-05 s⁻¹ and a kon of 1.8e+06 M⁻¹ s⁻¹.
For B20, in that order: 0.038 nM, 6.5e-05 s⁻¹ and 1.7e+06 M⁻¹ s⁻¹.
